According to article PMC5971202:
Where two headings read alike, the source gives them in different places.

T1: rDDX1 (WT) (human, UniProt Q92499 1-728)
T1 sequence: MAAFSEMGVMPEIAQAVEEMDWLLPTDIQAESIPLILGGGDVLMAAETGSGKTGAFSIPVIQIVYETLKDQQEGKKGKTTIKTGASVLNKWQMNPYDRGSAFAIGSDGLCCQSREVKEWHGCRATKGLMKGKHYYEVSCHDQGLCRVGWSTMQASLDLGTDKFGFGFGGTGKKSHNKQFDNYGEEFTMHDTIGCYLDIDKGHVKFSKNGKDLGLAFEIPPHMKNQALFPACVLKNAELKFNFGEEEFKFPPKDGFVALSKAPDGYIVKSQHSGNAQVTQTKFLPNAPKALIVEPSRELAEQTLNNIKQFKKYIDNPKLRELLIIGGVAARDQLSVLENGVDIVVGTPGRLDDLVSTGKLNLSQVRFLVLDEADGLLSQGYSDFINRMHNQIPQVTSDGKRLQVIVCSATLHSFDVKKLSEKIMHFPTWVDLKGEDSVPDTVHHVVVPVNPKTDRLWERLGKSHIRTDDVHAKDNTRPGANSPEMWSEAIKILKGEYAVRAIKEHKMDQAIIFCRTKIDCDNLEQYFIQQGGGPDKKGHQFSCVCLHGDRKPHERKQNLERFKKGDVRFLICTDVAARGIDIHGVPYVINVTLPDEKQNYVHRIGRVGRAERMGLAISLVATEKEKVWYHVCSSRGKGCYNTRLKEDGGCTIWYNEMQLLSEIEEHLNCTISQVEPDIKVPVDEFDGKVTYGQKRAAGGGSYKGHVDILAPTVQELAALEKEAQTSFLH

T2: rDDX1-K52A (human, UniProt Q92499 1-728, K52A)
T2 sequence: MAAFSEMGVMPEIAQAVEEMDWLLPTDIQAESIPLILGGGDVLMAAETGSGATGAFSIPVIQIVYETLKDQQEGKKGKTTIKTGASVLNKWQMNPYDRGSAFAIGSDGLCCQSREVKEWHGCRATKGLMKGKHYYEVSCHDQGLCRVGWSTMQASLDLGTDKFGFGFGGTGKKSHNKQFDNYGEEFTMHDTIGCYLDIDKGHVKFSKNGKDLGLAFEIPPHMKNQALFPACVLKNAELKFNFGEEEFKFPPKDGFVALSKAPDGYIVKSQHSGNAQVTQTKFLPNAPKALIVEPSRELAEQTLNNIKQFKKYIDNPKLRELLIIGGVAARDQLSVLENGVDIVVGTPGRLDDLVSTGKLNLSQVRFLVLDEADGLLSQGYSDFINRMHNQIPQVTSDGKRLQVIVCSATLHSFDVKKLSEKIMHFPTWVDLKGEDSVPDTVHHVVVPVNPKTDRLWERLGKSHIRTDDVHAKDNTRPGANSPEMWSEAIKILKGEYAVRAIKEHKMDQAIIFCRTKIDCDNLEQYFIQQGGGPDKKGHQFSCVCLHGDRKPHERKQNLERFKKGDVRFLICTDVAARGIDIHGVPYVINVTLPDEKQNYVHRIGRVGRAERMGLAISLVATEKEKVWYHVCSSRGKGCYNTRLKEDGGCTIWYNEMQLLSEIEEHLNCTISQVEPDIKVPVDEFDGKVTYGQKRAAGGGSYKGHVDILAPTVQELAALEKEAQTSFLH


Key:
Assay in all cases: EMSA
[1] = target: T1, rDDX1 (WT)
[2] = target: T2, rDDX1-K52A
[3] = target: T1, rDDX1 (WT); remark: listed apart in the source
[4] = target: T2, rDDX1-K52A; remark: listed apart in the source

Binder | binding result [1] | binding result [2] | binding result [3] | binding result [4]
ATCGGAATGTATGAGAATAGAAGAGATAATGAATAATAGAA (ssDNA) [Single-stranded DNA] | no binding | no binding | – | –
GAGCUGGGGUGAGCUGGGGUGAGCUGGGGUGAGCUGGGGU (structured_RNA) [Sμ4G RNA 32P] | – | – | binds | binds
GAGCUGCGCUGAGCUGCGCUGAGCUGCGCUGAGCUGCGCU (ssRNA) [Sμ4Gmut RNA 32P] | – | – | no binding | –
